Measurements from patent US20080139472A1, “UPREGULATING BDNF LEVELS TO MITIGATE MENTAL RETARDATION” (THE REGENTS OF THE UNIVERSITY OF CALIFORNIA, priority 2006, published 2008).
“Also recorded” adds a separate entry of the source.

Legend:
Format in all cases: cell-based, mouse
NMDA receptor = NMDA receptor contribution to theta burst responses in hippocampal slices, estimated with APV
Procedure: (§1) Transverse hippocampal slices (350 m) through the mid-septotemporal hippocampus were prepared with a vibratome (VT 1000 S; Leica, Bannockbum, Ill.) in ice-cold artificial CSF [ACSF; containing (in mM) 124 NaCl, 3 KCl, 1.25 KH2PO4, 3.4 CaCl2, 2.5 MgSO4, 26 NaHCO3, and 10 dextrose, pH 7.35) from young (2-3 months old) adult Fmr1-KO and wild-type (WT) mice (unless otherwise specified, chemicals were from Sigma, St. Louis, Mo.). […] Related to this, pharmacological results obtained with such slices accurately predict effects obtained with chronic recordings or biochemical assays from behaving animals (Staubli et al., 1994; Lauterbom et al., 2003), a point that is of importance to those aspects of the present work concerned with therapeutic strategies. All experiments were initiated between 9:00 and 11:00 A.M., and slices from Fmr1-KO and WT animals were randomized across two chambers and run simultaneously. Slices were maintained at 31±1° C. in an interface recording chamber with the slice surface exposed to warm, humidified 95% O2/5% CO2 and continuous ACSF perfused at a rate of 60-70 ml/hr. Slices equilibrated to the chamber for at least 1 h before recordings were initiated. […] Evoked responses were digitized (NacGather 2.0; Theta Burst, Irvine, Calif.) and analyzed for amplitude and fall slope; data are presented as a percentage of baseline. Responses to individual theta bursts were analyzed to determine the burst area; to evaluate treatment effects on theta train facilitation, responses to each burst in the theta train are presented as a percentage change from the area of the initial burst response. […] Statistical significance was assessed using either two-way repeated-measures ANOVA to compare values that were stable over time or Mann-Whitney Utest to compare groups expressing different decay rates (i.e., values not stable over time); statistical analyses were performed using SPSS version 15.0 (SPSS, Chicago, Ill.) Variance for physiology experiments is expressed as SEM.

[1] = tested on: hippocampal slices from Fmr1-KO mice; test: LTP (fEPSP slope) after theta burst stimulation in field CA1 of hippocampal slices from Fmr1-KO mice; conditions: for effect on TBS-induced increase in fEPSP slope (30-40 min post-TBS): compared with ACSF alone
Procedure: Transverse hippocampal slices (350 m) through the mid-septotemporal hippocampus were prepared with a vibratome (VT 1000 S; Leica, Bannockbum, Ill.) in ice-cold artificial CSF [ACSF; containing (in mM) 124 NaCl, 3 KCl, 1.25 KH2PO4, 3.4 CaCl2, 2.5 MgSO4, 26 NaHCO3, and 10 dextrose, pH 7.35) from young (2-3 months old) adult Fmr1-KO and wild-type (WT) mice (unless otherwise specified, chemicals were from Sigma, St. Louis, Mo.). […] Related to this, pharmacological results obtained with such slices accurately predict effects obtained with chronic recordings or biochemical assays from behaving animals (Staubli et al., 1994; Lauterbom et al., 2003), a point that is of importance to those aspects of the present work concerned with therapeutic strategies. All experiments were initiated between 9:00 and 11:00 A.M., and slices from Fmr1-KO and WT animals were randomized across two chambers and run simultaneously. Slices were maintained at 31±1° C. in an interface recording chamber with the slice surface exposed to warm, humidified 95% O2/5% CO2 and continuous ACSF perfused at a rate of 60-70 ml/hr. Slices equilibrated to the chamber for at least 1 h before recordings were initiated. A single glass electrode (2 M NaCl) was placed within the mid proximodistal CA1b stratum radiatum and was used to record field EPSPs (fEPSPs) from the apical dendrites of CA1 pyramidal cells. Orthodromic stimulation was delivered at two sites (CA1a and CA1c) in the apical Schaffer collateral-commissural projections to provide convergent activation of CA1b pyramidal cells. Pulses were administered in an alternating manner to the two electrodes at 0.05 Hz by using a current that elicited a 50% maximal response. […] Input-output and paired-pulse facilitation assays were performed as described previously (Rex et al., 2005). Synaptic potentiation was induced with a train of 5 or 10 theta bursts (each containing four pulses at 100 Hz, with an interburst interval of 200 ms) Carson et al., 1986; Kramar and Lynch, 2003; Rex et al., 2005). Evoked responses were digitized (NacGather 2.0; Theta Burst, Irvine, Calif.) and analyzed for amplitude and fall slope; data are presented as a percentage of baseline. Responses to individual theta bursts were analyzed to determine the burst area; to evaluate treatment effects on theta train facilitation, responses to each burst in the theta train are presented as a percentage change from the area of the initial burst response. Unless otherwise stated, group size values presented in the figures represent number of slices tested. Generally two to three slices were tested from a given mouse, and no fewer than three mice were used in any group; for statistical analyses, each slice was considered an individual n. Statistical significance was assessed using either two-way repeated-measures ANOVA to compare values that were stable over time or Mann-Whitney Utest to compare groups expressing different decay rates (i.e., values not stable over time); statistical analyses were performed using SPSS version 15.0 (SPSS, Chicago, Ill.) Variance for physiology experiments is expressed as SEM.
A recirculating perfusion system (oxygenated and heated as above) with a peristaltic pump (60 ml/hr; MasterFlex C/L; Cole-Parmer, Vernon Hills, Ill.) was used for experiments in which purified BDNF (catalog #GF029; Millipore, Temecula, Calif.) was administered to slices. The purity of the recombinant (mature) BDNF was confirmed using Western blot analyses: a single 14 kDa band was observed under denaturing conditions. Slices received BDNF for 30 min to 1 h before physiological recording. BDNF stock was prepared in ddH2O at a concentration of 50 ng/ml (this is equivalent to 1.85 nM based on the 27 kDa size of the dimer) and stored at −20° C. Control slices from the same animals received ACSF alone in parallel on a second recirculating interface chamber. […]

[2] = tested on: hippocampal slices from WT mice; test: LTP (fEPSP slope) after theta burst stimulation in field CA1 of hippocampal slices from wild-type mice
Procedure: as §1, with “SEM. […]” for “SEM.”

[3] = WT slices, pair of theta bursts, mean of 6 slices
[4] = Fmr1-KO slices, five theta bursts

Molecule | effect of APV on theta burst responses (NMDA receptor; Fmr1-KO slices, pair of theta bursts with and without APV) | effect of APV on the first burst response (NMDA receptor; [3]) | effect of APV on the second burst response (NMDA receptor; [3]) | LTP above baseline ([1]; Fmr1-KO slices treated with BDNF 15 ng/ml) [%] | slope of the fEPSP enhanced above baseline ([1]; Fmr1-KO slices, BDNF 2 nM from 30 min before theta burst stimulation, five theta bursts, 40-50 min post-TBS) [%] | degree of LTP (fEPSP slope, percent above baseline) ([1]; Fmr1-KO slices, BDNF 50 ng/ml bath-applied, five theta bursts, minutes 30-40 post-TBS, mean ±SEM) [%] | effect on input-output curves / baseline transmission (fEPSP amplitude) ([1]; Fmr1-KO slices, BDNF 50 ng/ml vs ACSF alone or heat-inactivated BDNF) | effect on facilitation of burst responses during theta trains ([1]; Fmr1-KO slices, BDNF 50 ng/ml vs ACSF and heat-inactivated BDNF) | restoration of LTP ([1]; Fmr1-KO slices, brief infusion of 50 ng/ml BDNF, threshold theta burst stimulation) | effect on TBS-induced increase in fEPSP slope (30-40 min post-TBS) [1, 4] | potentiation (fEPSP slope, percent above baseline) ([2]; BDNF 50 ng/ml bath-applied, five theta bursts, minutes 30-40 post-TBS, mean ±SEM) [%] | effect on facilitation of burst responses during theta trains ([2]; BDNF 50 ng/ml vs ACSF) | effect on input-output curves ([2]; BDNF 50 ng/ml vs ACSF alone)
N[C@@H](CCCP(=O)(O)O)C(=O)O [APV] | marked, and reversible, depression | slight reduction in the half-width of the fourth fEPSP | reduced the size of fEPSPs 2 through 4 |  |  |  |  |  |  |  |  |  | 
BDNF: purified recombinant (mature) BDNF, catalog #GF029; Millipore; single 14 kDa band under denaturing conditions (protein, UniProt P23560 19-247, looked up) Neurotrophic factor BDNF …: APMKEANIRGQGGLAYPGVRTHGTLESVNGPKAGSRGLTSLADTFEHVIEELLDEDQKVRPNEENNKDADLYTSRVMLSSQVPLEPPLLFLLEEYKNYLDAANMSMRVRRHSDPARRGELSVCDSISEWVTAADKKTAVDMSGGTVTVLEKVPVSKGQLKQYFYETKCNPMGYTKEGCRGIDKRHWNSQCRTTQSYVRALTMDSKKRIGWRFIRIDTSCVCTLTIKRGR |  |  |  | > 40 | 44 | 42.1±8.6 | no effect; also recorded: did not alter | did not measurably affect | fully restored LTP | enhanced | 51.3±8.6 | did not measurably affect | did not alter
heat-inactivated BDNF: BDNF heat-inactivated by boiling for 5 min immediately before use; specificity control (protein, UniProt P23560 19-247, looked up, heat-inactivated, specificity control) Neurotrophic factor BDNF …: APMKEANIRGQGGLAYPGVRTHGTLESVNGPKAGSRGLTSLADTFEHVIEELLDEDQKVRPNEENNKDADLYTSRVMLSSQVPLEPPLLFLLEEYKNYLDAANMSMRVRRHSDPARRGELSVCDSISEWVTAADKKTAVDMSGGTVTVLEKVPVSKGQLKQYFYETKCNPMGYTKEGCRGIDKRHWNSQCRTTQSYVRALTMDSKKRIGWRFIRIDTSCVCTLTIKRGR |  |  |  |  |  |  |  |  |  | no effect |  |  | 
